In assay [1] the target is E. coli-produced Wuhan-Hu1 RBD (receptor binding domain of the SARS-CoV-2 spike protein, a.a. 319-542) (SARS-CoV-2 (Wuhan-Hu1), UniProt P0DTC2). Nature of the assay: BLI. Conditions: both partners purified.
Assay [2] deals with mammalian cell-expressed Wuhan-Hu1 RBD reference standard (SARS-CoV-2 (Wuhan-Hu1), UniProt P0DTC2). Kind of assay: BLI. Conditions: both partners purified.

B1: mAb WRAIR-2125 (antibody, V domains shown)
VH: EVQLVESGGGVVQPGRSLRLSCAASGFTFSSYGMHWVRQAPGKGLEWVAVISYDGSNKYYADSVKGRFTISRDNSKNTLSLQMNSLRPEDTAVYYCAKDSPYYYDSSGYYPGYFQDWGQGSLVTVSS
VL: DIQMTQSPSSLSASIGDRVTITCRASQTISDYLNWYQQKPGKAPNLLIYAASTLQSGVPSRFSGSGSGTDFTLTISSLQPEDFATYYCQQSYITPRTFGQGTKVEIK
In the case of B1, the binding result in assay [1] and in assay [2] was “binds” each time.

B2: mAb WRAIR-2173 (antibody, V domains shown)
VH: QVQLQESGPGLVKPSETLSLTCSVSGDSISSSDYSWGWIRQPPGKGLEWIGTIYYIKNTYYNPSLRSRVTLSVDTSKNLFSLKLSSVTAADTAVYYCARERPPFDVVVVPAARPYNWFDPWGLGTLVIVSS
VL: QSVLMQPPSVSGAPGQRVTISCTGSSSNIGAGYDVHWYQQLPGTAPKLLIYGNNNRPSGVPDRFSGSKSGTSASLAITGLQADDEADYYCQSYDSSLSGSKVFGGGTKLTVL
For B2, the binding result in assay [1] is listed as “binds”.

The values are drawn from article PMC9864931 (Vaccines, 2022).
